pKd: −log10 of the molar value.

The target of assay [1] is Neptune (mKate M41G S61C S158C Y194F). Kind of assay: native gel or EMSA.
Assay [2] has the same target. Kind of assay: SEC-MALS. Background: SEC sorts molecules by how far they enter the pores of the column.
For assay [3] the target is unchanged. Description: AUC.
The target of assay [4] is Neptune, His tag removed by TEV protease (crystallized form). Kind of assay: crystal structure.
Assay [5] concerns the target dTomato. Description: SDS-PAGE of unboiled samples.
Assay [6] has as its target dTomato. Kind of assay: native gel or EMSA.
Assay [7] deals with dTomato. Kind of assay: SEC-MALS.
In assay [8] the target is mKate. Description: native gel or EMSA. Background: Mobility shift assays separate free from complexed probe on a gel.
Assay [9] concerns the target mKate. Description: SEC-MALS.

In general, stoichiometry N refers to the number of molecules, sites or subunits per partner or assembly. A word on the pKd: it is −log10 of the Kd, conventionally taken in molar units. For the substance Neptune (mKate M41G S61C S158C Y194F), the stoichiometry N in [1] and in assay [2] was 2 each time. The pKd in [3] was 6.30.
Turning to “Neptune, His tag removed by TEV protease (crystallized form)”, the stoichiometry N in assay [4] was found to be 4.
With dTomato, the stoichiometry N with dTomato [5], with dTomato [6] and in the assay with dTomato [7] was 2 throughout.
Turning to mKate, the stoichiometry N with mKate [8] and with mKate [9] was 2 throughout.

Source of the values: PMC2814181.
